These results are taken from patent US6774222, “Molecular computing elements, gates and flip-flops” (The United States of America as represented by the …).

In data set [1] the target is T1, Fis (Factor for Inversion Stimulation) (Escherichia coli, UniProt P0A6R3 P0A6R3:1-98). The experiment in a line: EMSA; double shift; both sites bound simultaneously; up to 2200 nM Fis, 1 nM DNA. The note with it: chain copies: 2 (dimer, stated); label: 5' biotin; self-complementary linear duplex. As to the method: (§1) FIG. 9 illustrates the mobility shift experiments for 11 and 7 base pair overlapping and 23 base pair separated Fis sites. Each lane contains increasing concentrations of Fis protein, beginning with no Fis, Fis diluted 1 to 64, etc. The 1:1 dilution is at 2200 nM Fis. This concentration was chosen intentionally so that with 1 nM DNA per reaction, the protein/DNA ratio is 2-fold higher than that needed to strongly shift DNA containing the 8.9 bit wild-type hin distal Fis site (Bruist et al. (1987) *Genes Dev.* 1: 762–772). Marker lanes (M) contain 10 ng of biotinylated […] hinfI digested DNA standards (Life Technologies, Inc.). Sizes are indicated in bp. The lowest band in most lanes of the figure is single-stranded oligonucleotide DNA. In the "Separated 23" experiment, at high concentrations, Fis proteins are apparently able to capture the single-stranded DNA when it has folded into a hairpin. This produces a faint band near the 100 bp marker.

Data set [2] has as its target T1, Fis (Factor for Inversion Stimulation). As to the kind of experiment: EMSA; single shift only, no doubly shifted band up to 2200 nM Fis with 1 nM DNA; sites bound mutually exclusively. The note with it: chain copies: 2 (dimer, stated); label: 5' biotin; self-complementary linear duplex. As to the method:
as §1

T1 sequence (P0A6R3 whole entry, one chain of several): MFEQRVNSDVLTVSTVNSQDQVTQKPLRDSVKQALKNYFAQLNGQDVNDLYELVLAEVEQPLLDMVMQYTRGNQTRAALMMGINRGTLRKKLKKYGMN

B1: separated 23 Fis sites (dsDNA)
DNA 1: GGAATTCTTTGCTCAAAATTTGATCAGGATCCTGATCAAATTTTGAGCAAAGAATTCC
DNA 2: GGAATTCTTTGCTCAAAATTTGATCAGGATCCTGATCAAATTTTGAGCAAAGAATTCC
On to B1, for which the binding result in data set [1] was “binds”.

B2: overlap 7 Fis sites (dsDNA)
DNA 1: AGGCTTTTGCTCAAAGTTTAAACTTTGAGCAAAAGCCT
DNA 2: AGGCTTTTGCTCAAAGTTTAAACTTTGAGCAAAAGCCT
As for B2, the binding result in data set [2] is listed as “binds”.

B3: overlap 11 Fis sites (dsDNA)
DNA 1: TATTCTTTGCTCAAAATTTGATCAAATTTTGAGCAAAGAATA
DNA 2: TATTCTTTGCTCAAAATTTGATCAAATTTTGAGCAAAGAATA
Regarding B3, in data set [2], the binding result was “binds”.
